Our source for the Kd, koff and kon values is publication PMC5701006.

The target in test [1] is H. polygyrus TGF-β mimic (Hp-TGM), recombinant, amine-coupled to the chip (Heligmosomoides polygyrus). The experiment in a line: SPR; BIAcore X100; hTGF-β3 or Hp-TGM amine-coupled to a CM5 chip; two-fold dilutions of hTβRI (from 4 µM downwards) injected in HBS-EP at 30 µL/min, room temperature; global fit, simple 1:1 model.
Test [2] shares this target. The experiment in a line: SPR; as a1 but with 2 μM hTβRII in the HBS-EP running buffer and in the injected hTβRI samples.
Test [3] deals with human TGF-β3 on the chip with hTβRII extracellular domain bound (2 μM hTβRII in running buffer and samples) (human) (UniProt P37173). The description is as above.

B1: human TGF-β type I receptor extracellular domain (receptor)
chain: LQCFCHLCTKDNFTCVTDGLCFVSVTETTDKVIHNSMCIAEIDLIPRDRPFVCAPSSKTGSVTTTYCCNQDHCNKIELPTTVKSSPGLGPVEL
Turning to B1, the dissociation constant Kd came out at 351 nM in test [1], 348 nM in test [2] and 367 nM in test [3]. For the same molecule, the koff turned out to be 0.00386 s⁻¹ in test [1], 0.00315 s⁻¹ in test [2] and 0.00179 s⁻¹ in test [3]. Also, the values for the kon in test [1], in test [2] and in test [3] were 11000 M⁻¹ s⁻¹, 9070 M⁻¹ s⁻¹ and 4890 M⁻¹ s⁻¹, respectively.
